# Experimental data: patent US20230101046A1, “ANAPLASTIC LYMPHOMA KINASE CHIMERIC ANTIGEN RECEPTORS AND METHODS OF USE” (The Children's Medical Center Corporation, priority 2020, published 2023)
# Numbering of substitutions follows the chain as printed.
# B1: ALK Antibody 1: mouse hybridoma anti-ALK antibody against extracellular domain of human ALK receptor; VL/VH sequences in Tables 1 and 2 (antibody, V domains shown)
# VH: QVQLQQSGAELVKPGASVKISCKASGYAFSSYWMNWVKQRPGKGLEWIGQIYPGDGDTNYNGKFKGKATLTADKSSSTAYMQLSSLTSEDSAVYFCASYYYGSKAYWGQGTLVTVSA
# VL: DIQMTQSPASLAASVGETVTITCRASENIYYSLAWYQQKQGKSPQLLIYNANSLEDGVPSRFSGSGSGTQYSMKINSMQPEDTATYFCKQAYDVPFTFGSGTKLEIKR
# B2: ALK Antibody 6: mouse hybridoma anti-ALK antibody against extracellular domain of human ALK receptor; VL/VH sequences in Tables 1 and 2 (antibody, V domains shown)
# VH: DVKLVESGEGLVKPGGSLKLSCAASGFTFSSYAMSWVRQTPEKRLEWVTYISSGGDYIYYADTVKGRFTISRDNARNTLYLQMSSLKSEDTAMYYCTRERIWLRRFFDVWGTGTTVTVSS
# VL: DIVMTQSQKFMSTSVGDRVSITCKASQNVGTAVAWYQLKPGQSPKLLIYSASNRFTGVPDRFTGSGSGTDFTLTISNMQSEDLADYFCQQYSSYPLTFGSGTKLEIKR
# B3: ALK Antibody 7: mouse hybridoma anti-ALK antibody against extracellular domain of human ALK receptor; VL/VH sequences in Tables 1 and 2 (antibody, V domains shown)
# VH: QVQLQQSGAELAKPGASVKLSCKASGYTFTSYWMHWVKQRPGQGLEWIGYINPSSGYTKYNQKFKDKATLTADKSSSTAYMQLSSLTFEDSAVYYCARDYYGSSSWFAYWGQGTLVTVSA
# VL: DIVMTQSQKFMSTSVGDRVSVTCKASQNVGTNVAWYQQKPGHSPKALIYSASYRYSGVPDRFTGSGSGTDFTLTISNVQSEDLAEYFCQRYNSYPYMFTFGGGTKLEIKR
# B4: ALK Antibody 5: mouse hybridoma anti-ALK antibody against extracellular domain of human ALK receptor; VL/VH sequences in Tables 1 and 2 (antibody, V domains shown)
# VH: B3 VH with N52K, F88Y
# VL: B3 VL with K9R, H42Q, R90Q, F98Y
# B5: ALK Antibody 3: mouse hybridoma anti-ALK antibody against extracellular domain of human ALK receptor; VL/VH sequences in Tables 1 and 2 (antibody, V domains shown)
# VH: B3 VH with S31N, F88Y
# VL: B3 VL with K9R, H42Q, I75V, R90Q, F98Y
# Biological target: ALK (Homo sapiens, UniProt Q9UM73)
# Sequence (Q9UM73 19-1620): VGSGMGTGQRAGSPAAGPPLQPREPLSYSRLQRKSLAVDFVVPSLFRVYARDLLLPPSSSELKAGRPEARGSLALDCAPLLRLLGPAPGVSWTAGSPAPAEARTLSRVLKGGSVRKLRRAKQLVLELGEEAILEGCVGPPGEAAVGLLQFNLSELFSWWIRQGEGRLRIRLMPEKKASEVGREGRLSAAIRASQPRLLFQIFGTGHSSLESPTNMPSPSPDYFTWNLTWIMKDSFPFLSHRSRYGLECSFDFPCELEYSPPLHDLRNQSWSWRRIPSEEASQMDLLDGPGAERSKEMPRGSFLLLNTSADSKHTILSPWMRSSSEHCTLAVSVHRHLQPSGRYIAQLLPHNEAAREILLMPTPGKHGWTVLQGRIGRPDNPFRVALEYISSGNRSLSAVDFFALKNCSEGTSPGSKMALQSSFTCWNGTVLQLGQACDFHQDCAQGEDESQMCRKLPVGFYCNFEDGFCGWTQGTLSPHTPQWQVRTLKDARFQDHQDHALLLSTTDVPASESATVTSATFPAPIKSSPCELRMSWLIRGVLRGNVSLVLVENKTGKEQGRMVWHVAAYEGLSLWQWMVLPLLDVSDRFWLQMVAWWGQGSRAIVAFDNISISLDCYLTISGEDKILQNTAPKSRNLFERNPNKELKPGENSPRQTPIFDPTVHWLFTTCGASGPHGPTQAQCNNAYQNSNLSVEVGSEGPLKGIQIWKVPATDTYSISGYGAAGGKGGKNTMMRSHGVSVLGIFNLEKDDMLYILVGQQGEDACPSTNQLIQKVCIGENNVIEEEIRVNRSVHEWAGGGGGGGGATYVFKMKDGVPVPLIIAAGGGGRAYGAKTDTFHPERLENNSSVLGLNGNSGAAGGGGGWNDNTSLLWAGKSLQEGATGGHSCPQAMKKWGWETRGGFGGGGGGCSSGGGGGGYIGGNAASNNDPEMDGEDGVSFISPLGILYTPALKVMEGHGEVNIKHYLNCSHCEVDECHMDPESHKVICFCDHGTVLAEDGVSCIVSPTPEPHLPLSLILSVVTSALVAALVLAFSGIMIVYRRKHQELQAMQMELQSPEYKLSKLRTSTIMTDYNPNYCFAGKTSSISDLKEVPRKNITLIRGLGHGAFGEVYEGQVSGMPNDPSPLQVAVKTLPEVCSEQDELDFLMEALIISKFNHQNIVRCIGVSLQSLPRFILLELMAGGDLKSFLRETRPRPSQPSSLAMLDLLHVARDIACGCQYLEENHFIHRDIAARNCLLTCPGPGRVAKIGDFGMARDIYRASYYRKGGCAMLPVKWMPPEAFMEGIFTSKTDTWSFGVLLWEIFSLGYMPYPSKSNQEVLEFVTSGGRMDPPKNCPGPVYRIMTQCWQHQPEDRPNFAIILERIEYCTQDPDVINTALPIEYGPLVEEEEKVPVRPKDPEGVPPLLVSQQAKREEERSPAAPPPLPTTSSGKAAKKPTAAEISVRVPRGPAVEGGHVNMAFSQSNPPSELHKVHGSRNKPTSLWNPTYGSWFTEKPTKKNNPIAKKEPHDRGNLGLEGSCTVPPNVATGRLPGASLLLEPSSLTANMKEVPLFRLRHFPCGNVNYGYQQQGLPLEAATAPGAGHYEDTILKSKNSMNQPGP
# Test: ALK phosphorylation / ALK signaling activity of ALK antibodies
# Format: cell-based
# Procedure: (§1) Seven (7) ALK-specific antibodies (ALK Antibodies #1-#7) directed against the extracellular domain of human ALK receptor were evaluated for use in CAR-based immunotherapy.
row,activity on ALK signaling,Molecule
1,no effect on ALK signaling,B1
2,inhibited ALK signaling,B2
3,agonistic of ALK signaling,B3
4,inhibited ALK signaling,B4
5,inhibited ALK signaling,B5

# Biological target: Mouse-ALK (Mus musculus, UniProt P97793)
# Sequence (P97793 19-1621): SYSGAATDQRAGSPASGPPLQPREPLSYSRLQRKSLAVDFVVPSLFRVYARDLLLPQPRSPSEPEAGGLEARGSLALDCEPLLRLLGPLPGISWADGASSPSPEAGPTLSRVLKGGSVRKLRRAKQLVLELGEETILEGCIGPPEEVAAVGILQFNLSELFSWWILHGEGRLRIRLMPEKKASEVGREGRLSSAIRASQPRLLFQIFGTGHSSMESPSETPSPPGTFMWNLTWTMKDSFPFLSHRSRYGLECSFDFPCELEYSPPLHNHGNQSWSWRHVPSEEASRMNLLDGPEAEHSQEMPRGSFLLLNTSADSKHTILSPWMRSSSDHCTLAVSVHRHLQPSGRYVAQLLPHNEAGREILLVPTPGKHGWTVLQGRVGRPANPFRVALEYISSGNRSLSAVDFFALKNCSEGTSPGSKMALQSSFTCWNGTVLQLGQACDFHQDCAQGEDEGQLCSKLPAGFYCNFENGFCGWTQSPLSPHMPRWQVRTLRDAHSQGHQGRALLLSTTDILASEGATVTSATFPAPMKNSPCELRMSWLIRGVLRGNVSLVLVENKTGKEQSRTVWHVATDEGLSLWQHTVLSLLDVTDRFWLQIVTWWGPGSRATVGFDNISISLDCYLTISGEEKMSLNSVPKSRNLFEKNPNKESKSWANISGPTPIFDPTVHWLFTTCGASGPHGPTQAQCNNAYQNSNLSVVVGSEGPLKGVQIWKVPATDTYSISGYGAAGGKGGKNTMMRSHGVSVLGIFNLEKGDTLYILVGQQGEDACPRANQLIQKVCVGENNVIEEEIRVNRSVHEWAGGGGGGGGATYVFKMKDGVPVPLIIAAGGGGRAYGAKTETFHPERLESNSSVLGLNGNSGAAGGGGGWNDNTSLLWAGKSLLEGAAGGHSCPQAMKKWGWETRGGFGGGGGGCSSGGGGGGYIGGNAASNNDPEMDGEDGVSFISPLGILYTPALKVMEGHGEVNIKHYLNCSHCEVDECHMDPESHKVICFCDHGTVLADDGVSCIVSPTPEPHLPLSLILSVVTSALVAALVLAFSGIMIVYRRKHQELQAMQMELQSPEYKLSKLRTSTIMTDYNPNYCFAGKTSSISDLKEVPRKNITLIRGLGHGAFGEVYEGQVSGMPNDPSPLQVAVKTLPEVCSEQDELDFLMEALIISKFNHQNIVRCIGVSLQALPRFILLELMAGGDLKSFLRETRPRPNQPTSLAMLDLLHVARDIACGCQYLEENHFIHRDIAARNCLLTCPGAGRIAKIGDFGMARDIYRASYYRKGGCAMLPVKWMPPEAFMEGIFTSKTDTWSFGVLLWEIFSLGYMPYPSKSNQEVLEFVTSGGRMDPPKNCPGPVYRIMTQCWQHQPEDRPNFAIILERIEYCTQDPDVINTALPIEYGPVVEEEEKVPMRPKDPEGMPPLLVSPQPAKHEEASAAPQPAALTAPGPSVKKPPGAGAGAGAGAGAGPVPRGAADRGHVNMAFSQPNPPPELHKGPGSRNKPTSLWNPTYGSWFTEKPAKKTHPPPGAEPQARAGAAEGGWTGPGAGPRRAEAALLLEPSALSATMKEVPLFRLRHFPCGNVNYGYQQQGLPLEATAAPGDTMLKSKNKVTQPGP
# Test: Mouse-ALK binding of ALK antibodies
# Procedure: as §1
row,recognition of human and murine ALK,Molecule
1,recognize both the human and murine ALK,B2
2,recognize both the human and murine ALK,B3
3,recognize both the human and murine ALK,B4
